Here are results for two substances from patent US20020137677A1.

Common to all, as to assay: cell-based or functional assay
In test [1] the target is human zalpha11 Ligand (human) (UniProt Q9HBE4).
In test [2] the target is human zalpha11 receptor, full-length, on cells (human) (UniProt Q9HBE5).
Test [3] concerns the target mouse zalpha11 receptor, on cells (mouse).

UniProt Q9HBE4, sequence (Q9HBE4 32-162 limits assumed, form in doubt): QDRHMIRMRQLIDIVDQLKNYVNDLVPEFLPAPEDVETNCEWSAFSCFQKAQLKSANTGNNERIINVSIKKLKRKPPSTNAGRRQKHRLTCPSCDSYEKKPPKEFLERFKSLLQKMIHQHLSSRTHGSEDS
UniProt Q9HBE5, sequence (Q9HBE5 20-538 limits assumed): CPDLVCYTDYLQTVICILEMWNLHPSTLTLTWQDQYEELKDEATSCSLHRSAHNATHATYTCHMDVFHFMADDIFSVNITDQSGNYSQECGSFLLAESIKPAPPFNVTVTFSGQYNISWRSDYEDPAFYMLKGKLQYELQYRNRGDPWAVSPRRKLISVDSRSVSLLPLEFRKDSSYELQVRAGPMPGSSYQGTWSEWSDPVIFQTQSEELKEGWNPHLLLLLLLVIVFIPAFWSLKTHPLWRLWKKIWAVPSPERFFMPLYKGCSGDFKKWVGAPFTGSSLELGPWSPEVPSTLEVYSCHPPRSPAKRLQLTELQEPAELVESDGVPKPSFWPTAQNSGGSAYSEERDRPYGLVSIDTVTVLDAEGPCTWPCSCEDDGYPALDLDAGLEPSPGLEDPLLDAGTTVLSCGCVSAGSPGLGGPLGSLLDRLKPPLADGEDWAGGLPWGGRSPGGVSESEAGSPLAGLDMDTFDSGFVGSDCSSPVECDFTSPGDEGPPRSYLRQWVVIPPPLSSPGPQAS

In test [1], “soluble human zalpha11 receptor/human IL-2Rγ receptor heterodimer (hzalpha11/IgGγ1 + hIL-2Rγ/human κ light chain) (Fc fusion)” displayed an inhibition of BaF3/zalpha11 proliferation (Alamar Blue), concentration completely inhibiting 3 ng/ml human zalpha11 Ligand of 0.312 µg/mL and a potency in inhibiting human zalpha11 Ligand relative to the homodimeric soluble zalpha11 receptor (zalpha11-Fc4) of 30 to 100 fold.

Consider mouse zalpha11 Ligand, for which, in test [2], the STAT luciferase reporter response of BaF3/KZ134/Zalpha11 cells (fold over media-only control) came out at 40 and the proliferation of BaF3/Zalpha11 cells (Alamar Blue) (fold over background) came to 5. Further, the STAT luciferase reporter response of untransfected BaF3/KZ134 control cells in test [3] stood at 5 fold.
